23 molecules from patent EP4717706A1 can be followed below.

The target of test [1] is VLP2 (virus-like particles, capsid protein particles of AAV serotype 2) (AAV serotype 2 (AAV2)) (UniProt P03135). The experiment in a line: ELISA on immobilised VLP2 (culture supernatant, anti-His detection); A450 after 1:1 0.5 M NaOH, 30 min, 30°C divided by A450 untreated.
Test [2] has the same target. The experiment in a line: ELISA on immobilised VLP2 (culture supernatant); A450 after 1:1 1 M NaOH, 15 min, 30°C divided by A450 untreated.

UniProt P03135, sequence (P03135 whole entry): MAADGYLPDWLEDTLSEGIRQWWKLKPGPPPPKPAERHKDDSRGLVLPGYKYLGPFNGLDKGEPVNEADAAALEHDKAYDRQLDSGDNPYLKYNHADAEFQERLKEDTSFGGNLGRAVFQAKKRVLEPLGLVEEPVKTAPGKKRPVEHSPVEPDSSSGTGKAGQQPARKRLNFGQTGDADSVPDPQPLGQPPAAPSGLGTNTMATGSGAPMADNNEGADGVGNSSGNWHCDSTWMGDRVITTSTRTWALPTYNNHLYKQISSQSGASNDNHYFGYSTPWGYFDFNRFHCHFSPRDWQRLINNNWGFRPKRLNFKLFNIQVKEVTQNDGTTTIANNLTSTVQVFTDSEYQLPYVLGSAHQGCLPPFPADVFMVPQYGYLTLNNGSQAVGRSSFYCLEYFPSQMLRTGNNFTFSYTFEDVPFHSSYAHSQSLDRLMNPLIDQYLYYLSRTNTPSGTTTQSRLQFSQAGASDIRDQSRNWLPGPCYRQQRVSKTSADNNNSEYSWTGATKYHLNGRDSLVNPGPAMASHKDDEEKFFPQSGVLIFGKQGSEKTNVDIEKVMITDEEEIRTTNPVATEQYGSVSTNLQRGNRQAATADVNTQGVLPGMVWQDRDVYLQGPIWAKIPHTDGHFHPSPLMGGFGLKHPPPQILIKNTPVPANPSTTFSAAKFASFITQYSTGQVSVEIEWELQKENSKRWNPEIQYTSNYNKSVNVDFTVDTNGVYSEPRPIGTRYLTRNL

B1: AVR21 with T397S (receptor)
chain: MGSAGESDQITLPKHEAQLNVYVLLVPPKGEASTYDWQLITHPRDYSGEMEGEHSQILKLSNLTPGLYEYRAVVEGQNAHSEGYVNVSVEPEPRKNRPPIAIVSPQFQEISLPTTSTVIDGSQSTDDDKIVQYHWEELKGPLREEKISEDTAILKLSQLVPGNYTFRLTVVDTDGATDSTTADLTVNKAVDHHHHHH
In test [1], B1 yielded a Remaining activity [%] of 38.4%.

B2: AVR21 with D500N (receptor)
chain: MGSAGESDQITLPKHEAQLNVYVLLVPPKGEASTYDWQLITHPRDYSGEMEGEHSQILKLSNLTPGLYEYRAVVEGQNAHSEGYVNVTVEPEPRKNRPPIAIVSPQFQEISLPTTSTVIDGSQSTDDDKIVQYHWEELKGPLREEKISEDTAILKLSQLVPGNYTFRLTVVDTDGATDSTTADLTVNKAVNHHHHHH
The molecule B2 showed a Remaining activity [%] in test [1] of 39.3%.

B3: AVR21 with E(V)335A (receptor)
chain: MGSAGESDQITLPKHEAQLNVYVLLAPPKGEASTYDWQLITHPRDYSGEMEGEHSQILKLSNLTPGLYEYRAVVEGQNAHSEGYVNVTVEPEPRKNRPPIAIVSPQFQEISLPTTSTVIDGSQSTDDDKIVQYHWEELKGPLREEKISEDTAILKLSQLVPGNYTFRLTVVDTDGATDSTTADLTVNKAVDHHHHHH
As for B3, the Remaining activity [%] in test [1] amounted to 35.8%.

B4: AVR25c with Q415R, S457R (receptor)
chain: MGSAGESDQITLPKHEAQLKVYVLLVPPKGEASTYDWQLITHPRDYSGEMEGEHSQILKLSNLTPGLYEYRAVVEGQNAHSEGYVNVTVEPGPRKNRPPIAIVSPRFQEISLPTTSAVIDGSQSTDDDKIVQYHWEELKGPLREEKIREDTPILKLSNLVPGNYTFRLTVVDTDGATDSTTADLTVNKAVDHHHHHH
As to B4, in test [2], the Remaining activity [%] came to 55.1%.

B5: AVR21 with T426A (receptor)
chain: MGSAGESDQITLPKHEAQLNVYVLLVPPKGEASTYDWQLITHPRDYSGEMEGEHSQILKLSNLTPGLYEYRAVVEGQNAHSEGYVNVTVEPEPRKNRPPIAIVSPQFQEISLPTTSAVIDGSQSTDDDKIVQYHWEELKGPLREEKISEDTAILKLSQLVPGNYTFRLTVVDTDGATDSTTADLTVNKAVDHHHHHH
B5 came in with a Remaining activity [%] in test [1] of 43.5%.

B6: AVR25c with Q347R, T486A, D500G (receptor)
chain: MGSAGESDQITLPKHEAQLKVYVLLVPPKGEASTYDWRLITHPRDYSGEMEGEHSQILKLSNLTPGLYEYRAVVEGQNAHSEGYVNVTVEPGPRKNRPPIAIVSPQFQEISLPTTSAVIDGSQSTDDDKIVQYHWEELKGPLREEKISEDTPILKLSNLVPGNYTFRLTVVDTDGAADSTTADLTVNKAVGHHHHHH
As to B6, the Remaining activity [%] in test [2] was 72.8%.

B7: AVR25c with H363P, K497E (receptor)
chain: MGSAGESDQITLPKHEAQLKVYVLLVPPKGEASTYDWQLITHPRDYSGEMEGEPSQILKLSNLTPGLYEYRAVVEGQNAHSEGYVNVTVEPGPRKNRPPIAIVSPQFQEISLPTTSAVIDGSQSTDDDKIVQYHWEELKGPLREEKISEDTPILKLSNLVPGNYTFRLTVVDTDGATDSTTADLTVNEAVDHHHHHH
For the molecule B7, the Remaining activity [%] in test [2] is 69.6%.

B8: AVR21 with N329K, E401G (receptor)
chain: MGSAGESDQITLPKHEAQLKVYVLLVPPKGEASTYDWQLITHPRDYSGEMEGEHSQILKLSNLTPGLYEYRAVVEGQNAHSEGYVNVTVEPGPRKNRPPIAIVSPQFQEISLPTTSTVIDGSQSTDDDKIVQYHWEELKGPLREEKISEDTAILKLSQLVPGNYTFRLTVVDTDGATDSTTADLTVNKAVDHHHHHH
Regarding B8, in test [1], the Remaining activity [%] amounted to 43.1%.

B9: AVR25c with Q318R, E362D, E378G (receptor)
chain: MGSAGESDRITLPKHEAQLKVYVLLVPPKGEASTYDWQLITHPRDYSGEMEGDHSQILKLSNLTPGLYGYRAVVEGQNAHSEGYVNVTVEPGPRKNRPPIAIVSPQFQEISLPTTSAVIDGSQSTDDDKIVQYHWEELKGPLREEKISEDTPILKLSNLVPGNYTFRLTVVDTDGATDSTTADLTVNKAVDHHHHHH
The molecule B9 yielded a Remaining activity [%] in test [2] of 66.1%.

B10: AVR25c with E378G, V398A (receptor)
chain: MGSAGESDQITLPKHEAQLKVYVLLVPPKGEASTYDWQLITHPRDYSGEMEGEHSQILKLSNLTPGLYGYRAVVEGQNAHSEGYVNVTAEPGPRKNRPPIAIVSPQFQEISLPTTSAVIDGSQSTDDDKIVQYHWEELKGPLREEKISEDTPILKLSNLVPGNYTFRLTVVDTDGATDSTTADLTVNKAVDHHHHHH
Consider B10, for which the Remaining activity [%] in test [2] came to 67.5%.

B11: AVR25c with G314D, V499I (receptor)
chain: MGSADESDQITLPKHEAQLKVYVLLVPPKGEASTYDWQLITHPRDYSGEMEGEHSQILKLSNLTPGLYEYRAVVEGQNAHSEGYVNVTVEPGPRKNRPPIAIVSPQFQEISLPTTSAVIDGSQSTDDDKIVQYHWEELKGPLREEKISEDTPILKLSNLVPGNYTFRLTVVDTDGATDSTTADLTVNKAIDHHHHHH
In turn, B11 gave a Remaining activity [%] in test [2] of 79.1%.

B12: AVR25c with G314D, E399K, E445K (receptor)
chain: MGSADESDQITLPKHEAQLKVYVLLVPPKGEASTYDWQLITHPRDYSGEMEGEHSQILKLSNLTPGLYEYRAVVEGQNAHSEGYVNVTVKPGPRKNRPPIAIVSPQFQEISLPTTSAVIDGSQSTDDDKIVQYHWKELKGPLREEKISEDTPILKLSNLVPGNYTFRLTVVDTDGATDSTTADLTVNKAVDHHHHHH
Consider B12, for which, in test [2], the Remaining activity [%] amounted to 62.5%.

B13: AVR21 with N329S, K368R, V412A (receptor)
chain: MGSAGESDQITLPKHEAQLSVYVLLVPPKGEASTYDWQLITHPRDYSGEMEGEHSQILRLSNLTPGLYEYRAVVEGQNAHSEGYVNVTVEPEPRKNRPPIAIASPQFQEISLPTTSTVIDGSQSTDDDKIVQYHWEELKGPLREEKISEDTAILKLSQLVPGNYTFRLTVVDTDGATDSTTADLTVNKAVDHHHHHH
For B13, the Remaining activity [%] in test [1] was found to be 37.1%.

B14: AVR25c with F(Y)379N (receptor)
chain: MGSAGESDQITLPKHEAQLKVYVLLVPPKGEASTYDWQLITHPRDYSGEMEGEHSQILKLSNLTPGLYENRAVVEGQNAHSEGYVNVTVEPGPRKNRPPIAIVSPQFQEISLPTTSAVIDGSQSTDDDKIVQYHWEELKGPLREEKISEDTPILKLSNLVPGNYTFRLTVVDTDGATDSTTADLTVNKAVDHHHHHH
Regarding B14, the Remaining activity [%] in test [2] was 55.1%.

B15: AVR25c with E325V, D437V (receptor)
chain: MGSAGESDQITLPKHVAQLKVYVLLVPPKGEASTYDWQLITHPRDYSGEMEGEHSQILKLSNLTPGLYEYRAVVEGQNAHSEGYVNVTVEPGPRKNRPPIAIVSPQFQEISLPTTSAVIDGSQSTDDVKIVQYHWEELKGPLREEKISEDTPILKLSNLVPGNYTFRLTVVDTDGATDSTTADLTVNKAVDHHHHHH
As for B15, the Remaining activity [%] in test [2] turned out to be 76.7%.

B16: AVR21 with L328P, V394A (receptor)
chain: MGSAGESDQITLPKHEAQPNVYVLLVPPKGEASTYDWQLITHPRDYSGEMEGEHSQILKLSNLTPGLYEYRAVVEGQNAHSEGYANVTVEPEPRKNRPPIAIVSPQFQEISLPTTSTVIDGSQSTDDDKIVQYHWEELKGPLREEKISEDTAILKLSQLVPGNYTFRLTVVDTDGATDSTTADLTVNKAVDHHHHHH
The molecule B16 had a Remaining activity [%] in test [1] of 40.5%.

B17: AVR21 with V332A (receptor)
chain: MGSAGESDQITLPKHEAQLNVYALLVPPKGEASTYDWQLITHPRDYSGEMEGEHSQILKLSNLTPGLYEYRAVVEGQNAHSEGYVNVTVEPEPRKNRPPIAIVSPQFQEISLPTTSTVIDGSQSTDDDKIVQYHWEELKGPLREEKISEDTAILKLSQLVPGNYTFRLTVVDTDGATDSTTADLTVNKAVDHHHHHH
Take B17: in test [1], the Remaining activity [%] is 57.6%.

B18: AVR25c with V(D)317G, T478I (receptor)
chain: MGSAGESGQITLPKHEAQLKVYVLLVPPKGEASTYDWQLITHPRDYSGEMEGEHSQILKLSNLTPGLYEYRAVVEGQNAHSEGYVNVTVEPGPRKNRPPIAIVSPQFQEISLPTTSAVIDGSQSTDDDKIVQYHWEELKGPLREEKISEDTPILKLSNLVPGNYTFRLIVVDTDGATDSTTADLTVNKAVDHHHHHH
Take B18: the Remaining activity [%] in test [2] was 82%.

B19: AVR25c with R406H, F416L (receptor)
chain: MGSAGESDQITLPKHEAQLKVYVLLVPPKGEASTYDWQLITHPRDYSGEMEGEHSQILKLSNLTPGLYEYRAVVEGQNAHSEGYVNVTVEPGPRKNHPPIAIVSPQLQEISLPTTSAVIDGSQSTDDDKIVQYHWEELKGPLREEKISEDTPILKLSNLVPGNYTFRLTVVDTDGATDSTTADLTVNKAVDHHHHHH
Regarding B19, the Remaining activity [%] in test [2] was 41.9%.

B20: AVR21 with E(V)335A, V394I (receptor)
chain: MGSAGESDQITLPKHEAQLNVYVLLAPPKGEASTYDWQLITHPRDYSGEMEGEHSQILKLSNLTPGLYEYRAVVEGQNAHSEGYINVTVEPEPRKNRPPIAIVSPQFQEISLPTTSTVIDGSQSTDDDKIVQYHWEELKGPLREEKISEDTAILKLSQLVPGNYTFRLTVVDTDGATDSTTADLTVNKAVDHHHHHH
Take B20: the Remaining activity [%] in test [1] was found to be 37.3%.

B21: AVR21 with V412A (receptor)
chain: MGSAGESDQITLPKHEAQLNVYVLLVPPKGEASTYDWQLITHPRDYSGEMEGEHSQILKLSNLTPGLYEYRAVVEGQNAHSEGYVNVTVEPEPRKNRPPIAIASPQFQEISLPTTSTVIDGSQSTDDDKIVQYHWEELKGPLREEKISEDTAILKLSQLVPGNYTFRLTVVDTDGATDSTTADLTVNKAVDHHHHHH
On to B21, for which the Remaining activity [%] in test [1] is 32.5%.

B22: AVR25c with P322A, T350A, L421P (receptor)
chain: MGSAGESDQITLAKHEAQLKVYVLLVPPKGEASTYDWQLIAHPRDYSGEMEGEHSQILKLSNLTPGLYEYRAVVEGQNAHSEGYVNVTVEPGPRKNRPPIAIVSPQFQEISPPTTSAVIDGSQSTDDDKIVQYHWEELKGPLREEKISEDTPILKLSNLVPGNYTFRLTVVDTDGATDSTTADLTVNKAVDHHHHHH
Take B22: in test [2], the Remaining activity [%] was determined as 49.6%.

B23: AVR25c with G392E, S433G, A485V, L493M, N496D (receptor)
chain: MGSAGESDQITLPKHEAQLKVYVLLVPPKGEASTYDWQLITHPRDYSGEMEGEHSQILKLSNLTPGLYEYRAVVEGQNAHSEEYVNVTVEPGPRKNRPPIAIVSPQFQEISLPTTSAVIDGSQGTDDDKIVQYHWEELKGPLREEKISEDTPILKLSNLVPGNYTFRLTVVDTDGVTDSTTADMTVDKAVDHHHHHH
Regarding B23, the Remaining activity [%] in test [2] was determined as 61%.
